Drawing on PMC9359175, this text covers stoichiometry N and Kd for one substance.

Assay [1] has as its target 5HB-H2 (SARS-CoV-2 5-helix bundle, optimal construct) (SARS-CoV-2) (UniProt P0DTC2). Kind of assay: crystal structure.
The target is the same in assay [2]. Kind of assay: BLI; pH 4.5. (In general: Biolayer interferometry detects binding as a change in optical thickness at a sensor tip.)
For assay [3] the target is unchanged. In words: BLI; […]; 20 mM MES pH 5.5, 150 mM NaCl, 0.05% Tween 20, 298 K; 1:1 model.
For assay [4] the target is unchanged. In words: ITC; […]; 298 K; 20 mM HEPES pH 7.5, 150 mM NaCl; […]. (In general: In ITC the heat of successive injections is recorded.)
Assay [5] has the same target. In words: BLI; […]; 20 mM HEPES pH 7.5, 150 mM NaCl, 0.05% Tween 20, 298 K; 1:1 model.
For assay [6] the target is unchanged. Kind of assay: BLI; pH 5.
Assay [7] shares this target. In words: BLI; […]; 20 mM MES pH 6.0, 150 mM NaCl, 0.05% Tween 20, 298 K; 1:1 model.

Consider “HR2P, 36-mer peptide derived from SARS-CoV-2 S HR2 (D1168-L1203)”, for which the stoichiometry N (commonly a count of units in the complex or per binding partner) in assay [1] stood at 1. For the same substance, the Kd (usually the free concentration of one partner at which half of the binding sites on the other are occupied at equilibrium, for simple one-to-one binding) in assay [2] was 1.37 nM; in assay [3], 3.08 nM; in assay [4], 5.12 nM; in assay [5], 4.91 nM; in assay [6], 2.43 nM; in assay [7], 3.22 nM.
